Test results: patent US20130324474A1 (Eli Lilly, published 2013)

Target: T1, Recombinant Human GFRα-1/GDNF Rα-1 Fc Chimera (human, UniProt P56159 25-429)
T1 construct: Purchased Fc chimera; It was captured on protein A in Biacore and coated on the plate in ELISA; also called GFRα1-Fc; recombinant human GFRα1-Fc chimera, carrier-free; not shown: Fc part of a purchased Fc chimera
T1 sequence (looked up): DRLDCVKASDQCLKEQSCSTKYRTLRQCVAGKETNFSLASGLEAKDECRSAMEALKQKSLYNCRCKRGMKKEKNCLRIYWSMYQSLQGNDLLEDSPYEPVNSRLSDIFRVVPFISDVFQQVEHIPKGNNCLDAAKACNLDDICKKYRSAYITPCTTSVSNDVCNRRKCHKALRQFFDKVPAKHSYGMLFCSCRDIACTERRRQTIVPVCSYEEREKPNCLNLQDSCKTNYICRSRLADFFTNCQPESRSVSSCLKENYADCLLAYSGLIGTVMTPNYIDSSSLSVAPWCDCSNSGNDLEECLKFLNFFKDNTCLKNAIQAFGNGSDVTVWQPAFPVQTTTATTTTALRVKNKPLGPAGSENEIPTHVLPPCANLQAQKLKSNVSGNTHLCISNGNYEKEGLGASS
Experiment: ELISA, plate-bound human GFRα1-Fc; lower end of the 95% confidence range, n = 14
Procedure: Each well of a 96-well plate (Greiner 655081 Immunobind ELISA plates) is coated with 70 μl of human GFRα1 (recombinant human GFRα1-Fc chimera, carrier-free) at 1 μg/ml in carbonate buffer, pH 9.6. If an irrelevant receptor is coated, it is an irrelevant Fc chimera and is coated at the same concentration as GFRα1. The plates are sealed and incubated at 4° C. overnight. The wells are aspirated and washed twice with washing buffer (20 mM Tris (hydroxymethyl) aminomethane, pH 7.4, 0.15 M NaCl, 0.1% Tween-20), using an automatic plate washer. The plates are blocked with 200 μl blocking buffer per well (3% Carnation Instant milk in the above washing buffer) for at least 1 hour at room temperature. Plates are washed twice with washing buffer. […]
A 50 μl aliquot of horseradish peroxidase-conjugated streptavidin (Jackson ImmunoResearch, catalog #016-030-084), diluted 1:1000 in blocking buffer, is added to each well and incubated for 20-30 minutes at room temperature. […] The absorbance of the wells is read at 490 nm on a Molecular Devices SpectraMax250 plate reader. The average absorbance for the triplicate wells for each condition are determined, and the resulting values are processed for EC₅₀ calculation with Graph Pad Prism software to provide a 95% confidence range.

B1: CHO-Δ31-GDNF (SEQ ID NO: 8) (ligand)
chain: RGQRGKNRGCVLTAIHLNVTDLGLGYETKEELIFRYCSGSCDAAETTYDKILKNLSRNRRLVSDKVGQACCRPIAFDDDLSFLDDNLVYHILRKHSAKRCGCI
modifications: N-glycosylated at N49 (numbering of mature GDNF)
notes: Expressed in CHO cells; also called CHO-Δ31-GDNFv; WT CHO Δ31-GDNFv
EC50: 300 to 600 pM
